In publication PMC10776578, “Epstein-Barr virus-driven B cell lymphoma mediated by a direct LMP1-TRAF6 complex” (Nature Communications, 2024):
Entries after “also recorded” stand apart in the source; their conditions may differ.

Columns and labels:
GST-RANK314-355 [1] = assay: AlphaScreen PPI, TRAF6 mutants binding to RANK; design: species or system human
GST-LMP1 Q381E = assay: AlphaScreen PPI, TRAF6 mutants binding to LMP1 Q381E; design: species or system Epstein-Barr virus; conditions: for interaction with LMP1 Q381E (in words): AlphaScreen PPI, four independent experiments; for TRAF6 binding to LMP1 Q-E, AlphaScreen (relative), Supplementary Figure 2 a: mean of wt = 100; for TRAF6 binding to LMP1 Q-E, AlphaScreen (relative), mean: wt = 100, mean of n = 4
Method: AlphaScreen experiments were performed in 96- or 384-well plates (Perkin Elmer, OptiPlate). In both assay formats, His-TRAF and GST-LMP1, GST-CD40, or GST-RANK proteins were incubated together in 40 µL of PBS (protein concentrations were calculated to the final reaction volume of 60 µL) supplemented with 0.5% BSA (Sigma, #A7030) and 0.1% Tween-20 (AppliChem, #A4974), for 1 h at room temperature (RT). If not indicated otherwise, standard protein concentrations were 300 nM for His-TRAF proteins and 100 nM for GST-LMP1 proteins. Ni-NTA-acceptor (Perkin Elmer, #6760619 C) and GST-acceptor (Perkin Elmer, # 6765300) beads were added each to a final concentration of 1–4 µg per mL in a final reaction volume of 60 µL and incubated for 1 h at RT in the dark. AlphaScreen PPI signals were measured in a CLARIOstar reader (BMG Labtech GmbH). […]
Supplementary Figure 2. LMP1 Q381E interaction with TRAF6 and additional controls to
experiments. Data are mean values ± SD of four independent experiments. Statistics: one -way
ANOVA. p-values: ****p ≤ 0.0001. Source data in the Source Data file. […]

GST-RANK314-355 [2] = assay: AlphaScreen PPI, TRAF6 mutants binding to RANK; design: species or system human; conditions: for effect of TRAF6 mutation on binding to RANK (in words): AlphaScreen PPI; for TRAF6 binding to RANK (AlphaScreen), mean / TRAF6 binding to RANK (AlphaScreen): Figure 2c; for TRAF6 binding to RANK (AlphaScreen), mean: mean of n = 4
Method: Fig. 2 LMP1 binds to the receptor-interacting surface of TRAF6. a Mutations within the receptor-interacting surface of TRAF6 affect binding to LMP1. The TRAF6 mutants R392A, K469A, F471A, and Y473A were tested LMP1 in AlphaScreen PPI experiments with GST-LMP1_181-386. Data are mean values ± SD of three independent experiments. Statistics: one-way ANOVA. b TRAF6 R392A differentiates between CD40 and LMP1/RANK. AlphaScreen PPI experiments with GST-CD40_216-277. Data are mean values ± SD of three independent experiments. […] AlphaScreen PPI experiments with GST-RANK314-355. Data are mean values ± SD of four independent experiments. Statistics: one-way ANOVA. d TRAF6 mutants that fail to interact with LMP1 in PPI assays are also unable to bind cellular LMP1. HEK293 cells were co-transfected with HA-LMP1 and the indicated Flag-TRAF6 mutants. Flag-TRAF6 was immunoprecipitated (IP) via its Flag-tag and coprecipitated HA-LMP1 was detected on immunoblots by an α-HA antibody. Uncropped blots in Supplementary Fig. 6b. For statistical analysis LMP1 signals were digitalized and quantified (graph). Data are mean values ± SD of three independent experiments. […] TRAF6 recruitment is dependent on amino acids 371 − 386 of LMP1 (small panel). Confocal microscopy images show representative cells of three independent experiments. Quantitative data are mean values ± SD of ten randomly selected cells per transfection of one representative experiment (graph). Scale bars: 10 µm. Statistics: one-way ANOVA. p-values: *p ≤ 0.05, **p ≤ 0.01, ***p ≤ 0.001, ****p ≤ 0.0001. Source data and exact p-values in the Source Data file.
AlphaScreen experiments were performed in 96- or 384-well plates (Perkin Elmer, OptiPlate). In both assay formats, His-TRAF and GST-LMP1, GST-CD40, or GST-RANK proteins were incubated together in 40 µL of PBS (protein concentrations were calculated to the final reaction volume of 60 µL) supplemented with 0.5% BSA (Sigma, #A7030) and 0.1% Tween-20 (AppliChem, #A4974), for 1 h at room temperature (RT). If not indicated otherwise, standard protein concentrations were 300 nM for His-TRAF proteins and 100 nM for GST-LMP1 proteins. Ni-NTA-acceptor (Perkin Elmer, #6760619 C) and GST-acceptor (Perkin Elmer, # 6765300) beads were added each to a final concentration of 1–4 µg per mL in a final reaction volume of 60 µL and incubated for 1 h at RT in the dark. AlphaScreen PPI signals were measured in a CLARIOstar reader (BMG Labtech GmbH).

Molecule	effect of TRAF6 mutation on binding to RANK (in words) (GST-RANK314-355 [1]; listed as TRAF6 R392A)	interaction with LMP1 Q381E (in words) (GST-LMP1 Q381E)	TRAF6 binding to LMP1 Q-E, AlphaScreen (relative), Supplementary Figure 2 a (GST-LMP1 Q381E; replicate 1)	TRAF6 binding to LMP1 Q-E, AlphaScreen (relative), Supplementary Figure 2 a (GST-LMP1 Q381E; replicate 2)	TRAF6 binding to LMP1 Q-E, AlphaScreen (relative), Supplementary Figure 2 a (GST-LMP1 Q381E; replicate 3)	TRAF6 binding to LMP1 Q-E, AlphaScreen (relative), Supplementary Figure 2 a (GST-LMP1 Q381E; replicate 4)	TRAF6 binding to LMP1 Q-E, AlphaScreen (relative), mean (GST-LMP1 Q381E)	effect of TRAF6 mutation on binding to RANK (in words) (GST-RANK314-355 [2])	TRAF6 binding to RANK (AlphaScreen), mean (GST-RANK314-355 [2])	TRAF6 binding to RANK (AlphaScreen) (GST-RANK314-355 [2]; replicate 1)	TRAF6 binding to RANK (AlphaScreen) (GST-RANK314-355 [2]; replicate 2)	TRAF6 binding to RANK (AlphaScreen) (GST-RANK314-355 [2]; replicate 3)	TRAF6 binding to RANK (AlphaScreen) (GST-RANK314-355 [2]; replicate 4)	effect of TRAF6 mutation on binding to RANK (in words) (GST-RANK314-355 [1]; listed as Y471A)
R392A (protein, UniProt Q9Y4K3 1-522, looked up, variant R392A) TNF receptor-associated …: MSLLNCENSCGSSQSESDCCVAMASSCSAVTKDDSVGGTASTGNLSSSFMEEIQGYDVEFDPPLESKYECPICLMALREAVQTPCGHRFCKACIIKSIRDAGHKCPVDNEILLENQLFPDNFAKREILSLMVKCPNEGCLHKMELRHLEDHQAHCEFALMDCPQCQRPFQKFHINIHILKDCPRRQVSCDNCAASMAFEDKEIHDQNCPLANVICEYCNTILIREQMPNHYDLDCPTAPIPCTFSTFGCHEKMQRNHLARHLQENTQSHMRMLAQAVHSLSVIPDSGYISEVRNFQETIHQLEGRLVRQDHQIRELTAKMETQSMYVSELKRTIRTLEDKVAEIEAQQCNGIYIWKIGNFGMHLKCQEEEKPVVIHSPGFYTGKPGYKLCMALHLQLPTAQRCANYISLFVHTMQGEYDSHLPWPFQGTIRLTILDQSEAPVRQNHEEIMDAKPELLAFQRPTIPRNPKGFGYVTFMHLEALRQRTFIKDDTLLVRCEVSTRFDMGSLRREGFQPRSTDAGV	do not interact	fail to interact with LMP1 Q381E; also recorded: unable to override the negative effect of R392A mutation	8.4	4.1	6.1	4.8	5.85	do not bind to RANK; also recorded: prevented the interaction of TRAF6 with LMP1 and RANK	0.1	0.1	0.1	0.1	0.1	–
F471A (protein, UniProt Q9Y4K3 1-522, looked up, variant F471A) TNF receptor-associated …: MSLLNCENSCGSSQSESDCCVAMASSCSAVTKDDSVGGTASTGNLSSSFMEEIQGYDVEFDPPLESKYECPICLMALREAVQTPCGHRFCKACIIKSIRDAGHKCPVDNEILLENQLFPDNFAKREILSLMVKCPNEGCLHKMELRHLEDHQAHCEFALMDCPQCQRPFQKFHINIHILKDCPRRQVSCDNCAASMAFEDKEIHDQNCPLANVICEYCNTILIREQMPNHYDLDCPTAPIPCTFSTFGCHEKMQRNHLARHLQENTQSHMRMLAQAVHSLSVIPDSGYISEVRNFQETIHQLEGRLVRQDHQIRELTAKMETQSMYVSELKRTIRTLEDKVAEIEAQQCNGIYIWKIGNFGMHLKCQEEEKPVVIHSPGFYTGKPGYKLCMRLHLQLPTAQRCANYISLFVHTMQGEYDSHLPWPFQGTIRLTILDQSEAPVRQNHEEIMDAKPELLAFQRPTIPRNPKGAGYVTFMHLEALRQRTFIKDDTLLVRCEVSTRFDMGSLRREGFQPRSTDAGV	–	fail to interact with LMP1 Q381E; also recorded: unable to override the negative effect	4.8	2.2	3.4	2.2	3.15	do not interact	0.725	0.2	0.4	0.2	2.1	abolished the interaction of TRAF6 with RANK; also recorded: do not bind to RANK
